We go through two molecules from paper PMC9932102, “SVEP1 is an endogenous ligand for the orphan receptor PEAR1” (Nature Communications, 2023).

The target in this test is T1, biotinylated SVEP1 (mouse, UniProt A2AVA0 18-3567, biotin on the biotinylation domain (by BirA)).
T1 construct: SVEP1, mouse Svep1 cDNA; biotinylation domain inserted in the C-terminus region upstream of the Myc tag; Same Svep1 construct as m1 with the biotinylation domain added; source: 293F cells, co-transfected with secreted BirA and supplemented with biotin, purified (Nuvia IMAC, Superose 6)
The experiment in a line: BLI; biotinylated SVEP1 loaded on Octet SA biosensors (20 min, about 0.7 nm shift), quenched with biocytin; PEAR1 or PEAR1 D343N 10-90 nM as analyte; 0.01% Tween 20 in calcium-containing DPBS; 15 min association, 15 min dissociation; global 1:1 fit. The settings on record: both partners purified.

Numbering of substitutions follows the chain as printed. Numbers in names are those of the source.

T1 sequence (A2AVA0 18-3567): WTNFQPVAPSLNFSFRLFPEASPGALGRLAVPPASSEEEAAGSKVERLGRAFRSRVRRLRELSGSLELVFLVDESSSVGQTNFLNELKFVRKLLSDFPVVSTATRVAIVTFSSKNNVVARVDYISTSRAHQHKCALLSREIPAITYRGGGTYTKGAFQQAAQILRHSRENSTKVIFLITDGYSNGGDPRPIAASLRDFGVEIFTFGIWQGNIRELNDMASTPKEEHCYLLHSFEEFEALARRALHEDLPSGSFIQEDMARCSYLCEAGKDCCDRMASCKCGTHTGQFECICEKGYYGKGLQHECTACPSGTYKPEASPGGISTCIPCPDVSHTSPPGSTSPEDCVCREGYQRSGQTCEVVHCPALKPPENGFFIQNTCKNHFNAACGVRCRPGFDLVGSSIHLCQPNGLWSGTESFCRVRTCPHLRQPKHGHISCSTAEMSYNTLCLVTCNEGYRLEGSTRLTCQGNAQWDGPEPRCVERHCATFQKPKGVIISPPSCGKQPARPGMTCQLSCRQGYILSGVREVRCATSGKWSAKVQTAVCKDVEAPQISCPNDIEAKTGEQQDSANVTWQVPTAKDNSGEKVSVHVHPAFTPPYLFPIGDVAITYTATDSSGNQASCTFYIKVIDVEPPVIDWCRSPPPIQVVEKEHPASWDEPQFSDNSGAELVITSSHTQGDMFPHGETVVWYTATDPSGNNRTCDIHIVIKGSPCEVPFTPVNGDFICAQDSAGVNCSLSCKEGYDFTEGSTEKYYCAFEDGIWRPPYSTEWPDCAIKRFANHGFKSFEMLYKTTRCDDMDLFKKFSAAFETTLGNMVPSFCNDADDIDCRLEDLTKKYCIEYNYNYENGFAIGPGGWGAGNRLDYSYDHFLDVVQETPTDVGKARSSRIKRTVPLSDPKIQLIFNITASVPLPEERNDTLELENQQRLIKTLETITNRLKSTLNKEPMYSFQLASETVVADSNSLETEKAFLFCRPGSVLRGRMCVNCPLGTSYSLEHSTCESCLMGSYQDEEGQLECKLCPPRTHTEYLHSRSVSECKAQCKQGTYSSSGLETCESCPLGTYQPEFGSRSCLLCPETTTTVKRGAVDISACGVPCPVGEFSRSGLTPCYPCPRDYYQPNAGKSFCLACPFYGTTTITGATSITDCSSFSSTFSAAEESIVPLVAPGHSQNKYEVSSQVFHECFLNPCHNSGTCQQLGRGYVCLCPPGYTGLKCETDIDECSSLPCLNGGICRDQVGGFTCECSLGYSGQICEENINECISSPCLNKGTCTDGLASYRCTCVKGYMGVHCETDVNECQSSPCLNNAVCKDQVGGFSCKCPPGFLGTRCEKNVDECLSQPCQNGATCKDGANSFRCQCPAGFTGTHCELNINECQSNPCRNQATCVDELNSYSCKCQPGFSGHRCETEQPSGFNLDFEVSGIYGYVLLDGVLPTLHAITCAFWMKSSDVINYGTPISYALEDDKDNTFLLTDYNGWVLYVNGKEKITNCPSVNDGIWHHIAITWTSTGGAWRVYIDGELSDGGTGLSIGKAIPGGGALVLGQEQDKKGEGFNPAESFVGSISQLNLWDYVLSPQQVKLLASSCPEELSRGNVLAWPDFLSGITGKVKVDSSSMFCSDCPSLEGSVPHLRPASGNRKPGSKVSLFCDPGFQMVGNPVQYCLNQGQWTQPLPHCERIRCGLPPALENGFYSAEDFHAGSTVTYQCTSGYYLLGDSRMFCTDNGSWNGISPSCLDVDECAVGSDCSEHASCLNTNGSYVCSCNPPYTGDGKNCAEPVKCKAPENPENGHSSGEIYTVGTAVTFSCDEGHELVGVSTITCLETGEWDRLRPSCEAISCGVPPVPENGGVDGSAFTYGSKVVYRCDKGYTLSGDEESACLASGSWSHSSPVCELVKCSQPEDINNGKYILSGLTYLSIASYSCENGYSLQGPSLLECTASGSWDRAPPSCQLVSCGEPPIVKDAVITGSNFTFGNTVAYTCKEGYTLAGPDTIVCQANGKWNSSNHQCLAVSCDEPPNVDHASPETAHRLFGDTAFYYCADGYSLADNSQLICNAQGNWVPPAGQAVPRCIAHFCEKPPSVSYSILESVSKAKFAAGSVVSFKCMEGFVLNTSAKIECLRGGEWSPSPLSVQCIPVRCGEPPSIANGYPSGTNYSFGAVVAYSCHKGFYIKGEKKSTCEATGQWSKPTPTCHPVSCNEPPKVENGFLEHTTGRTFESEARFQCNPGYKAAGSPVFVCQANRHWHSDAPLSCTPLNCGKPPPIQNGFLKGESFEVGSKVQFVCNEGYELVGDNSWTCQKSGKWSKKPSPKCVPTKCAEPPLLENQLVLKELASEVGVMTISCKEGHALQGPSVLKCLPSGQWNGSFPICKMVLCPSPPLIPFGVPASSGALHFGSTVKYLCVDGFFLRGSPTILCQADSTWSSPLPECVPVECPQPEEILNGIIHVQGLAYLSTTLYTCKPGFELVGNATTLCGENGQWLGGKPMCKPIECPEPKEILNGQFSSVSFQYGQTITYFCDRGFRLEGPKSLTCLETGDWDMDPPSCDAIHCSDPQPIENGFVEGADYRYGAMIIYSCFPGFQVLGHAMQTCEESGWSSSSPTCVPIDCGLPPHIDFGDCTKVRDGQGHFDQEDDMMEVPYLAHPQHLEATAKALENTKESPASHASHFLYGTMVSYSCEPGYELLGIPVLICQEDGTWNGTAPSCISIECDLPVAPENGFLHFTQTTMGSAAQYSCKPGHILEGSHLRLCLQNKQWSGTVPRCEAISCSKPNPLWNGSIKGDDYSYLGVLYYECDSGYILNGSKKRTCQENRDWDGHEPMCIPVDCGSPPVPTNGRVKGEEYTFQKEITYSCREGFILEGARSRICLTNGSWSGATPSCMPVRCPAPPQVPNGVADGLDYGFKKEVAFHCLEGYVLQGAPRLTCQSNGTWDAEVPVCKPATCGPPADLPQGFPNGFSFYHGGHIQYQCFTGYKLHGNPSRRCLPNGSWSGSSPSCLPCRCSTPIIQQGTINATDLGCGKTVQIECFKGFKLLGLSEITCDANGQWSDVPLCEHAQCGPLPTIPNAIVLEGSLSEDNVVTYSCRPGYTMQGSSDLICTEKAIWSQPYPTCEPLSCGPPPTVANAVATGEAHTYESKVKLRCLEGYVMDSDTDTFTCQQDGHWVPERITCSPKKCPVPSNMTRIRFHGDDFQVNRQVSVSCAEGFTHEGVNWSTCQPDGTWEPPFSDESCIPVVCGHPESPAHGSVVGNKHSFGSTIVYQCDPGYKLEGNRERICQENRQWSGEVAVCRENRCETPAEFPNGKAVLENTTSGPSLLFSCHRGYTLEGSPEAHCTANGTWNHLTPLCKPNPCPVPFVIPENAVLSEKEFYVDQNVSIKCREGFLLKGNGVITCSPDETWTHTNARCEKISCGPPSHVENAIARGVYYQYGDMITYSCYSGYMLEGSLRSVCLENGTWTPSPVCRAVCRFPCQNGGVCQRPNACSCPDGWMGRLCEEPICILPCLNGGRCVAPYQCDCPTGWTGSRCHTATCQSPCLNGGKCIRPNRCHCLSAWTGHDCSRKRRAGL

B1: PEAR1 (analyte of the BLI on biotinylated SVEP1) (receptor)
chain: LNPSDPNTCSFWESFTTTTKESHSRPFSLLPSEPCERPWEGPHTCPQPTVVYRTVYRQVVKTDHRQRLQCCHGFYESRGFCVPLCAQECVHGRCVAPNQCQCVPGWRGDDCSSECAPGMWGPQCDKPCSCGNNSSCDPKSGVCSCPSGLQPPNCLQPCTPGYYGPACQFRCQCHGAPCDPQTGACFCPAERTGPSCDVSCSQGTSGFFCPSTHSCQNGGVFQTPQGSCSCPPGWMGTICSLPCPEGFHGPNCSQECRCHNGGLCDRFTGQCRCAPGYTGDRCREECPVGRFGQDCAETCDCAPDARCFPANGACLCEHGFTGDRCTDRLCPDGFYGLSCQAPCTCDREHSLSCHPMNGECSCLPGWAGLHCNESCPQDTHGPGCQEHCLCLHGGVCQATSGLCQCAPGYTGPHCASLCPPDTYGVNCSARCSCENAIACSPIDGECVCKEGWQRGNCSVPCPPGTWGFSCNASCQCAHEAVCSPQTGACTCTPGWHGAHCQLPCPKGQFGEGCASRCDCDHSDGCDPVHGRCQCQAGWMGARCHLSCPEGLWGVNCSNTCTCKNGGTCLPENGNCVCAPGFRGPSCQRSCQPGRYGKRCVPCKCANHSFCHPSNGTCYCLAGWTGPDCSQPCPPGHWGENCAQTCQCHHGGTCHPQDGSCICPLGWTGHHCLEGCPLGTFGANCSQPCQCGPGEKCHPETGACVCPPGHSGAPCRIGIQEPFTVMPTTPVAYNSL
Consider B1, for which the Kd (in general, a measure of binding affinity in units of concentration) stood at 0.708 ± 0.003 nM.

B2: PEAR1 D343N (receptor, human, UniProt Q5VY43 21-755, looked up)
chain: B1 chain with D323N
notes: PEAR1 with the natural human missense variant p.D343N (rs147639000) in an EGF-like domain of the ectodomain; the construct is not described; as a soluble analyte it is probably an ectodomain (surmise); also called PEAR1 p.D343N; rs147639000
B2: the Kd was determined as 1.76 ± 0.006 nM.
